Results taken from US9045765B2, “EPSP synthase genes conferring herbicide resistance” (priority 2006, dated 2015).

Experiments:
[1] = system: GRG31 EPSP synthase enzymatic activity; assay: Thermal stability of GRG31 enzymatic activity at 37° C. (AMPLEX Red assay, 2 mM glyphosate); format: biochemical, Sphingobacterium multivorum/faecium
Procedure: Following IPTG induction, the GRG31 protein was purified to homogeneity by standard methods. To measure enzymatic activity, the purified GRG31 enzyme was diluted to an appropriate assay concentration in buffer containing HEPES (50 mM, pH 7) and 50 mM KCl, and then incubated at 37° C. for 0, 2, 6 or 22 hours. A control sample was incubated alongside at 4° C. At each timepoint, an aliquot was removed from each sample and enzymatic assays were carried out in a final volume of 50 μl containing 0.5 mM shikimate-3-phosphate, 200 uM phosphoenolpyruvate (PEP), 1 U/ml xanthine oxidase, 2 U/ml nucleoside phosphorylase, 2.25 mM inosine, 1 U/ml horseradish peroxidase, 2 mM glyphosate, 50 mM HEPES/KOH pH 7.0, 100 mM KCl, and AMPLEX® Red (Invitrogen) according to the manufacturer's instructions. Assays were started by adding shikimate-3-phosphate. EPSP synthase activity was measured using a Spectramax Gemini XPS fluorescence spectrometer (Molecular Dynamics, excitation: 555 nm; emission: 590 nm). EPSP synthase thermal stability was calculated as the percentage of enzymatic activity at each timepoint at 37° C. relative to enzymatic activity in the control sample incubated alongside at 4° C. (Table 6).

[2] = system: GRG31 EPSP synthase enzymatic activity; assay: Temperature optimum of GRG31 enzymatic activity (phosphate release, AMPLEX Red fluorescence); format: biochemical, Sphingobacterium multivorum/faecium
Procedure: Following IPTG induction, the GRG31 protein was purified to homogeneity by standard methods. […] Following incubation, the enzyme was heated to 90° C. for 1 minute to denature the enzyme, and then cooled to 4° C. The phosphate generated by each reaction was then added to a second assay containing inosine, purine nucleoside phosphorylase, xanthine oxidase, horseradish peroxidase, and the fluorescent substrate AMPLEX® Red (U.S. Patent Application No. 60/741,166, filed Dec. 1, 2005). Following incubation for 15 minutes at room temperature, fluorescent product was quantified using a Gemini XPS spectrofluorometer (Molecular Devices Corporation, Sunnyvale, Calif.). EPSP synthase product formation was measured, and is expressed in Table 5 as a percentage of maximal activity.

B1: GRG31: glyphosate-resistant EPSP synthase, predicted translation product of grg31, from strain ATX21318 (protein)
chain: MNQQVITLTHPSKKIQGTVQLTGSKSESNRALIIQSLSKGQVEIANLSEAADTVTLNRVLQIASDPKPGFNTIDIGPAGTAMRFLTAYLNLVKGNFILTGTERMQQRPIGILVDAMKEIGADIHYDKKVGYPPLKIEGGLFQEKDRVKIKGNISSQYISALLLIAPALKKGLTLEIEGELTSRPYVSMTLDMLKSVGIQHEWKNNAIKIAPQAFEKQTIYVEPDWSAASYWYAIAALADANASIVLPGLRKNSLQGDIAIISIMEHFGVQSSFESDGLHLNKKVIGSDVSLFNFKECPDLAQTVVVVAAALKRDVSFTGLETLKIKETDRIAALQKEIAKFGAELIEDGDTYHLKTAQVYQPEEVTFDTYEDHRMAMAFAPLALVFDQIKIAEPQVVEKSYPDFWNHLQAQAFVIE
modifications: Sphingobacterium multivorum/faecium
notes: glyphosate-resistant EPSP synthase, predicted translation product of grg31, from strain ATX21318
Percentage of control (enzymatic activity at 37° C. relative to control at 4° C.) ([1]; 0 hours at 37° C.): 100%
Percentage of control (enzymatic activity at 37° C. relative to control at 4° C.) ([1]; 2 hours at 37° C.): 86%
Percentage of control (enzymatic activity at 37° C. relative to control at 4° C.) ([1]; 6 hours at 37° C.): 68%
Percentage of control (enzymatic activity at 37° C. relative to control at 4° C.) ([1]; 22 hours at 37° C.): 29%
Percentage of Maximal Activity ([2]; 10 ° C., 15 minutes incubation): 42%
Percentage of Maximal Activity ([2]; 20 ° C., 15 minutes incubation): 62%
Percentage of Maximal Activity ([2]; 30 ° C., 15 minutes incubation): 69%
Percentage of Maximal Activity ([2]; 40 ° C., 15 minutes incubation): 80%
Percentage of Maximal Activity ([2]; 50 ° C., 15 minutes incubation): 100%
Percentage of Maximal Activity ([2]; 60 ° C., 15 minutes incubation): 96%
Percentage of Maximal Activity ([2]; 70 ° C.): 67%
Percentage of Maximal Activity ([2]; 80 ° C.): 36%
